This note sets out measurements from the Human Domainome abundance scans (Beltran et al. 2025).

To fix the notation:
B1: Death-inducer obliterator 1, residues 263 to 321; numbered along this chain, Q9BTC0 (parent)
chain: GYDPNALYCICRQPHNNRFMICCDRCEEWFHGDCVGISEARGRLLERNGEDYICPNCTI

± gives the uncertainty stated by the source.

The variants in this data set derive from B1. Nature of the data set: abundance fitness (aPCA) (normalised: wild type 0, dead -1); higher = more abundant; growth selection in yeast, the domain comes from the species named. The conditions noted are these: Homo sapiens.
Take GYRPNALYCICRQPHNNRFMICCDRCEEWFHGDCVGISEARGRLLERNGEDYICPNCTI [D3R]: the abundance fitness is -0.049 ± 0.075.

As to GYNPNALYCICRQPHNNRFMICCDRCEEWFHGDCVGISEARGRLLERNGEDYICPNCTI [D3N], the abundance fitness amounted to 0.155 ± 0.081.

For the variant GYWPNALYCICRQPHNNRFMICCDRCEEWFHGDCVGISEARGRLLERNGEDYICPNCTI [D3W], the abundance fitness is -0.163 ± 0.11.

Turning to GYLPNALYCICRQPHNNRFMICCDRCEEWFHGDCVGISEARGRLLERNGEDYICPNCTI [D3L], the abundance fitness is -0.024 ± 0.048.

For the variant GYIPNALYCICRQPHNNRFMICCDRCEEWFHGDCVGISEARGRLLERNGEDYICPNCTI [D3I], the abundance fitness was -0.007 ± 0.099.

As for GYSPNALYCICRQPHNNRFMICCDRCEEWFHGDCVGISEARGRLLERNGEDYICPNCTI [D3S], the abundance fitness turned out to be 0.174 ± 0.099.

GYPPNALYCICRQPHNNRFMICCDRCEEWFHGDCVGISEARGRLLERNGEDYICPNCTI [D3P]: the abundance fitness was found to be 0.135 ± 0.11.

In the case of GYTPNALYCICRQPHNNRFMICCDRCEEWFHGDCVGISEARGRLLERNGEDYICPNCTI [D3T], the abundance fitness is 0.023 ± 0.12.

As to GYKPNALYCICRQPHNNRFMICCDRCEEWFHGDCVGISEARGRLLERNGEDYICPNCTI [D3K], the abundance fitness turned out to be 0.123 ± 0.084.

For the variant GYCPNALYCICRQPHNNRFMICCDRCEEWFHGDCVGISEARGRLLERNGEDYICPNCTI [D3C], the abundance fitness was -0.048 ± 0.12.

GYFPNALYCICRQPHNNRFMICCDRCEEWFHGDCVGISEARGRLLERNGEDYICPNCTI [D3F]: the abundance fitness was 0.025 ± 0.097.

Take GYEPNALYCICRQPHNNRFMICCDRCEEWFHGDCVGISEARGRLLERNGEDYICPNCTI [D3E]: the abundance fitness worked out at 0.043 ± 0.072.

In the case of GYGPNALYCICRQPHNNRFMICCDRCEEWFHGDCVGISEARGRLLERNGEDYICPNCTI [D3G], the abundance fitness is -0.243 ± 0.096.

GYAPNALYCICRQPHNNRFMICCDRCEEWFHGDCVGISEARGRLLERNGEDYICPNCTI [D3A]: the abundance fitness was -0.735 ± 0.14.

With GYVPNALYCICRQPHNNRFMICCDRCEEWFHGDCVGISEARGRLLERNGEDYICPNCTI [D3V], the abundance fitness is -0.177 ± 0.078.

With GYYPNALYCICRQPHNNRFMICCDRCEEWFHGDCVGISEARGRLLERNGEDYICPNCTI [D3Y], the abundance fitness is 0.002 ± 0.069.

On to GYHPNALYCICRQPHNNRFMICCDRCEEWFHGDCVGISEARGRLLERNGEDYICPNCTI [D3H], for which the abundance fitness was found to be 0.111 ± 0.12.

In the case of GYMPNALYCICRQPHNNRFMICCDRCEEWFHGDCVGISEARGRLLERNGEDYICPNCTI [D3M], the abundance fitness is 0.199 ± 0.066.

In the case of GYQPNALYCICRQPHNNRFMICCDRCEEWFHGDCVGISEARGRLLERNGEDYICPNCTI [D3Q], the abundance fitness was -0.004 ± 0.18.

WYDPNALYCICRQPHNNRFMICCDRCEEWFHGDCVGISEARGRLLERNGEDYICPNCTI [G1W]: the abundance fitness was -0.336 ± 0.21.

For the variant IYDPNALYCICRQPHNNRFMICCDRCEEWFHGDCVGISEARGRLLERNGEDYICPNCTI [G1I], the abundance fitness stood at 0.16 ± 0.14.

MYDPNALYCICRQPHNNRFMICCDRCEEWFHGDCVGISEARGRLLERNGEDYICPNCTI [G1M]: the abundance fitness was -0.144 ± 0.34.

For QYDPNALYCICRQPHNNRFMICCDRCEEWFHGDCVGISEARGRLLERNGEDYICPNCTI [G1Q], the abundance fitness was -0.167 ± 0.21.

Regarding LYDPNALYCICRQPHNNRFMICCDRCEEWFHGDCVGISEARGRLLERNGEDYICPNCTI [G1L], the abundance fitness amounted to 0.266 ± 0.12.

Turning to SYDPNALYCICRQPHNNRFMICCDRCEEWFHGDCVGISEARGRLLERNGEDYICPNCTI [G1S], the abundance fitness was determined as 0.199 ± 0.065.

Consider CYDPNALYCICRQPHNNRFMICCDRCEEWFHGDCVGISEARGRLLERNGEDYICPNCTI [G1C], for which the abundance fitness was found to be 0.138 ± 0.088.

On to PYDPNALYCICRQPHNNRFMICCDRCEEWFHGDCVGISEARGRLLERNGEDYICPNCTI [G1P], for which the abundance fitness is -0.104 ± 0.4.

Turning to FYDPNALYCICRQPHNNRFMICCDRCEEWFHGDCVGISEARGRLLERNGEDYICPNCTI [G1F], the abundance fitness amounted to 0.058 ± 0.17.

As to VYDPNALYCICRQPHNNRFMICCDRCEEWFHGDCVGISEARGRLLERNGEDYICPNCTI [G1V], the abundance fitness was 0.323 ± 0.098.

For YYDPNALYCICRQPHNNRFMICCDRCEEWFHGDCVGISEARGRLLERNGEDYICPNCTI [G1Y], the abundance fitness amounted to 0.132 ± 0.13.

Take NYDPNALYCICRQPHNNRFMICCDRCEEWFHGDCVGISEARGRLLERNGEDYICPNCTI [G1N]: the abundance fitness came to 0.109 ± 0.11.

For DYDPNALYCICRQPHNNRFMICCDRCEEWFHGDCVGISEARGRLLERNGEDYICPNCTI [G1D], the abundance fitness worked out at 0.181 ± 0.056.

With RYDPNALYCICRQPHNNRFMICCDRCEEWFHGDCVGISEARGRLLERNGEDYICPNCTI [G1R], the abundance fitness was -0.134 ± 0.14.

In the case of GYDNNALYCICRQPHNNRFMICCDRCEEWFHGDCVGISEARGRLLERNGEDYICPNCTI [P4N], the abundance fitness is -0.036 ± 0.12.

GYDWNALYCICRQPHNNRFMICCDRCEEWFHGDCVGISEARGRLLERNGEDYICPNCTI [P4W]: the abundance fitness is -0.086 ± 0.085.

For the variant GYDKNALYCICRQPHNNRFMICCDRCEEWFHGDCVGISEARGRLLERNGEDYICPNCTI [P4K], the abundance fitness turned out to be 0.297 ± 0.22.

On to GYDQNALYCICRQPHNNRFMICCDRCEEWFHGDCVGISEARGRLLERNGEDYICPNCTI [P4Q], for which the abundance fitness is -0.043 ± 0.35.

For GYDTNALYCICRQPHNNRFMICCDRCEEWFHGDCVGISEARGRLLERNGEDYICPNCTI [P4T], the abundance fitness is -0.147 ± 0.074.

On to GYDVNALYCICRQPHNNRFMICCDRCEEWFHGDCVGISEARGRLLERNGEDYICPNCTI [P4V], for which the abundance fitness was -0.183 ± 0.094.

Turning to GYDLNALYCICRQPHNNRFMICCDRCEEWFHGDCVGISEARGRLLERNGEDYICPNCTI [P4L], the abundance fitness stood at 0.036 ± 0.079.

Regarding GYDANALYCICRQPHNNRFMICCDRCEEWFHGDCVGISEARGRLLERNGEDYICPNCTI [P4A], the abundance fitness is -0.075 ± 0.083.

As to GYDHNALYCICRQPHNNRFMICCDRCEEWFHGDCVGISEARGRLLERNGEDYICPNCTI [P4H], the abundance fitness is -0.062 ± 0.25.

Take GYDINALYCICRQPHNNRFMICCDRCEEWFHGDCVGISEARGRLLERNGEDYICPNCTI [P4I]: the abundance fitness is -0.14 ± 0.17.

Take GYDSNALYCICRQPHNNRFMICCDRCEEWFHGDCVGISEARGRLLERNGEDYICPNCTI [P4S]: the abundance fitness stood at 0.091 ± 0.078.

Turning to GYDDNALYCICRQPHNNRFMICCDRCEEWFHGDCVGISEARGRLLERNGEDYICPNCTI [P4D], the abundance fitness came out at 0.354 ± 0.26.
